Results as given in the supplement of paper PMC9170038.

Test system: MS2 coat protein
Assay: apparent KD of MS2 coat protein; designed switch direction (-1 OFF switch, 1 ON switch): 1; higher = weaker reporter binding
Summary of the method: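 Designed RNA switches sharing common flanks were transcribed on Illumina chips by stalled E. coli RNA polymerase. They were titrated with SNAP-549-labelled MS2 coat protein, from 0.7 or 1.5 nM doubling to 3 µM, in Tris-HCl pH 7.5 buffer with KCl, MgCl2, BSA, DTT, tRNA and Tween-20. Titrations ran without input, with 200 uM small-molecule ligand, or with an oligonucleotide input. The apparent KD of each design is the median over its clusters, after curve-fitting of normalised cluster fluorescence.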

[1] = input ligand: microRNA oligo, concentration not stated
[2] = Eterna round: R95, input ligand: FMN 200 uM
[3] = Eterna round: R95, input ligand: microRNA oligo, concentration not stated
[4] = Eterna round: R95, input ligand: none

Sequence | apparent KD of MS2 coat protein (input ligand: FMN 200 uM) [nM] | apparent KD of MS2 coat protein [1] [nM] | apparent KD of MS2 coat protein (input ligand: none) [nM] | apparent KD of MS2 coat protein [2] [nM] | apparent KD of MS2 coat protein [3] [nM] | apparent KD of MS2 coat protein [4] [nM]
AUUGCUUACGCAGGAUAUGAUGUGGAAACUGCGUCAGAAGGGUGAACAGUAUCGUUGCAAGAGGACAUGAGGAUCACCCAUGUC [SameState NG1 #98] (Eterna round: R96, puzzle: Same State NG 1) | 27.9 | 20.6 | 31.4 | – | – | –
AUUUAACAAGCUUUUUGCUCGUCUUAUAAACAUGAGGAUCACCCAUGUAAUAGCGUGAGAGUAAUUAUAUAAAUAAU [JMF 86] (puzzle: Sensor for hsa-mir-208a) | – | – | – | 16.4 | 43 | 15.4
AUUUAACAAGCUUUUUGCUCGUCUUAUAAACAUGAGGAUCACCCAUGUAAUAGCGUGAGAGUAAUUUUUUAAAUAAU [JMF 96] (puzzle: Sensor for hsa-mir-208a) | – | – | – | 20.3 | 34.3 | 17
CAAGAAAACGCAGGAUAUACCCGGGCUACCCGGGUAGAAGGGUGACACAUGAGGAUCACCCAUGUACAUAGAAUUAGCUAUGGA [Soberaa] (Eterna round: R96, puzzle: Same State NG 1) | 284 | 15.9 | 26.7 | – | – | –
CACAUCCAGGUAGGAUAUGAGGUGCCAUAGGGAAAAGCCUAUGGACAUGAGGAUCACCCAUGUCCUCAGAAGGGCCGGACGUGA [Ceerbearre] (Eterna round: R96, puzzle: Same State NG 2) | 26.5 | 79.6 | 96.7 | – | – | –
CAGCACUAUCGAGAGGAUAUGCGGUGAUGGACAUGAGGAUCACCCAUGUUAGCGAUGGCAUCACGGCAGAAGGCUCUGCUGCUGC [Soteed Omei mod 38] (puzzle: Same State 2) | – | – | – | – | 13.2 | –
CAGCGCUGUCGAGAGGAUAUGCGGUGAUAGACAUGAGGAUCACCCAUGUUAGCGAUAGCAUUACGGUAGAAGGCUCUACAGCUGC [Soteed - 12] (puzzle: Same State 2) | – | – | – | 29 | 73.3 | 103
CAGCGCUGUCGAGAGGAUAUGCGGUGAUGGACAUGAGGAUCACCCAUGUUAGCGACAGCAUCACGGCAGAAGGCUCUACCCGCUG [Soteed Omei mod 44] (puzzle: Same State 2) | – | – | – | – | 10.6 | –
CAGCGCUGUCGAGAGGAUAUGCGGUGAUGGACAUGAGGAUCACCCAUGUUAGCGAUAGUAUUACGGUAGAAGGCUCUACAGCUGC [Soteed - 11] (puzzle: Same State 2) | – | – | – | – | 43.6 | –
CAGUGCUGUUGAGAGGAUAUGCGGCGACGGACAUGAGGAUCACCCAUGUUAGCGACAGCGUUGCGGCAGAAGGCUCUGCCCGCUA [Soteed Omei mod 51] (puzzle: Same State 2) | – | – | – | – | 39.3 | –
CAUCGUUUGAUAGGAUAUCGCUAUACAUGAGGAUCACCCAUGUUUACCACGCUGGUUUUUCAUACCGAGAAGGAUUCUGAUGUU [salish99_SSNG02_r04_015] (Eterna round: R96, puzzle: Same State NG 2) | 36 | 25.2 | 38.6 | – | – | –
CCAAAGUACAAUUUAGAUCUACAUGAGGAUCACCCAUGUACUGAGGAUAUCAGCUCGUUUAGAGCUGAGAAGGCAGAAUUAAUU [SSNG3/4-A3] (Eterna round: R96, puzzle: Same State NG 3) | 135 | 111 | 224 | – | – | –
CCAAAUUGAAUCCACAUGAGGAUCACCCAUGUCCAACCGGUCUAGGAUAUCACAGCAAGCGCGUGUGAGAAGGAGAAAACAAGC [Eternabot solution 34] (Eterna round: R96, puzzle: Same State NG 3) | 42.1 | 21 | 43.4 | – | – | –
CCAACGUACAAUUUAGAUCUACAUGAGGAUCACCCAUGUACGGAGGAUAUCAGCUCGAAUAGAGCUGAGAAGGCCGAAUUAAUU [SSNG3/2-A1] (Eterna round: R96, puzzle: Same State NG 3) | – | 248 | – | – | – | –
CCACUCUGCGGAGGAUAUGGGCCUGCCCGGGAUAACGGGCCUAAUACAUGAGGAUCACCCAUGUCCCAGAAGGCCGCUAGAGCC [Xeusza] (Eterna round: R96, puzzle: Same State NG 2) | 18.8 | 92.4 | 139 | – | – | –
CCCAUGAAUAGUCAGGAUAUACGAUUUUAUACAUGAGGAUCACCCAUGUUAAGACUCCUCAAUAAGUAGAAGGGACUAUUUAUAA [Tesla Same State 2] (puzzle: Same State 2) | – | – | – | 154 | 144 | 103
CCCUCACAUGAGGAUCACCCAUGUCCUAGCCCGUCAGGAUAUAGCCCGCAUCCGCUGCGGCUAGAAGGGACAGCUG [JR_SS001_Sub611] (Eterna round: R96, puzzle: Same State 1) | 177 | 152 | 232 | – | – | –
CCCUUCGGCACAUGAGGAUCACCCAUGUUUUAGUGGAAGAGGUAGGAUAUGGCUGGGAGCAGAAGCCAGAAGGACCAAAUAAAU [Attiatan] (Eterna round: R96, puzzle: Same State NG 3) | 22.1 | 19 | 9.8 | – | – | –
CCGAUUGAUGGAGGAUAUGGAGCCUUAUUGGCUCCAGAAGGCUAAUAACAUGAGGAUCACCCAUGUCGGCGGUCUAAUGACCGA [Eli NG1ss - 54] (Eterna round: R96, puzzle: Same State NG 1) | 36.1 | 57.5 | 69.1 | – | – | –
CCGCAUUCAGCAGGAUAUCUCAACCGGAAGAUGAGAGAAGGGUUGAUUACAUGAGGAUCACCCAUGUCCAAGCAUGCGAGAGCC [Eternabot solution 23] (Eterna round: R96, puzzle: Same State NG 1) | 500 | 754 | 188 | – | – | –
CCGGCCACACAACAAGGCCAACAUGAGGAUCACCCAUGUACACAGGAUAUCGGCAGCCAAGGCUCCGAGAAGGGUGGUUCAAUU [Beage] (Eterna round: R96, puzzle: Same State NG 3) | 438 | 145 | 234 | – | – | –
CCGGUACAUGAGGAUCACCCAUGUUGCGGCAGGACAGGAUAUGGGCGAGAAUAUGUAGGCCCAGAAGGGUCAUCAC [Qure] (puzzle: Same State 1) | – | – | – | 24.1 | 42.1 | 38.9
